Experiments:
[1] = Stability of precipitated EGF at pH 4.6, 7 days at 46° C., with or without zinc ion, reverse phase HPLC; format: physicochemical; settings: pH 4.6, precipitated, sodium acetate buffer
Experimental: (§1) The zinc-EGF complex must be dissociated before HPLC analysis because the complex cannot be run on the HPLC column as is. Therefore, prior to HPLC, the pH of the samples to be analyzed was adjusted to 3.0. Alternatively, EDTA (a chelating agent) may be used to reverse crystallization. Reverse phase HPLC was conducted using a Vydac C-4 column (4.6 mm×25 cm, 5μm). The flow rate was 0.8 ml/min at 26° C. using a linear gradient of 26% to 32% acetonitrile (0.1% TFA) over 26 minutes.
This experiment was designed to answer the stability of the zinc-EGF complex results from the exclusion of water by the large and insoluble complex or alternatively from the direct interaction of zinc ion with specific amino acids in the protein. A zinc-EGF solution and control were prepared as in Example 1 and the samples were adjusted to a PH of 4.6. At this pH EGF naturally precipitates out of solution since it is at its isoelectric point. Two sets of the precipitated EGF at pH 4.6 in sodium acetate buffer were incubated for 7 days at 46° C.

[2] = EGF stability with zinc ion at pH 5.5 to 6.5, aged 28 days at 46° C., reverse phase HPLC of Peaks C, D, X, Y; format: physicochemical
Experimental: Recombinantly produced human EGF (Chiron Corporation, Emeryville, Calif.) was used in the following experiments. EGF stability with zinc ion was tested at pH 5.5 to 6.5. Lyophilized EGF was reconstituted in 50 mM sodium acetate at PH 5.5. A solution of zinc chloride was then added to this EGF solution. Alternatively, a solution of zinc acetate or crystals of a zinc salt could have been added.
The samples were permitted to age over a 28 day period and then HPLC analysis was used to study the structural changes involving the formation of new species (e.g., Peaks C, X and Y) of EGF under various storage conditions and in the presence of new formulations. Reverse phase HPLC can be used for quantitative and qualitative analysis of EGF.
as §1

In the case of “With Zn++: complex ion wherein zinc is coordinately bound to recombinant human EGF; precipitates at pH 4.0-7.0”, the “% Peak C” value [1] was 2%, the “% Peak X” value [1] was 7% and the “% Peak Y” value [1] was 0%. The “% Peak C” value ([2]; pH 5.5, 28 days at 46° C.) was 3%, the “% Peak D (native EGF)” value ([2]; pH 5.5, 28 days at 46° C.) was 82% and the “% Peak X” value ([2]; pH 5.5, 28 days at 46° C.) was 0%. The “% Peak C” value ([2]; pH 6.0, 28 days at 46° C.) was 3%, the “% Peak D (native EGF)” value ([2]; pH 6.0, 28 days at 46° C.) was 75% and the “% Peak X” value ([2]; pH 6.0, 28 days at 46° C.) was 4%. For the same substance, the “% Peak C” value ([2]; pH 6.5, 28 days at 46° C.) was 1% and the “% Peak X” value ([2]; pH 6.5, 28 days at 46° C.) was 0%.
For “Without Zn++: Recombinantly produced human epidermal growth factor (Chiron Corporation), 53 amino acid polypeptide, without zinc; control”, the “% Peak C” value [1] was 0%, the “% Peak D (native EGF)” value [1] was 47% and the “% Peak X” value [1] was 26%. For the same substance, the “% Peak Y” value [1] was 27%, the “% Peak C” value ([2]; pH 5.5, 28 days at 46° C.) was 3% and the “% Peak D (native EGF)” value ([2]; pH 5.5, 28 days at 46° C.) was 30%. The “% Peak Y” value ([2]; pH 5.5, 28 days at 46° C.) was 25%, the “% Peak C” value ([2]; pH 6.0, 28 days at 46° C.) was 6% and the “% Peak D (native EGF)” value ([2]; pH 6.0, 28 days at 46° C.) was 51%. For the same substance, the “% Peak Y” value ([2]; pH 6.0, 28 days at 46° C.) was 21%, the “% Peak C” value ([2]; pH 6.5, 28 days at 46° C.) was 6% and the “% Peak D (native EGF)” value ([2]; pH 6.5, 28 days at 46° C.) was 52%. The “% Peak Y” value ([2]; pH 6.5, 28 days at 46° C.) was 21%.

From patent US5130298A, “Stabilized compositions containing epidermal growth factor” (Ethicon, Inc., priority 1989, dated 1992)
